B1: TPR t1 (parent)
chain: GACCAAUCUGCCCUCAGAGCUCGAGAACAUCUUCGGAUGCAGAGGAGGCAGGCUUCGGUGGCGCGAUAGCGCCAACGUCCUCAACCUCCAAUGCAUCCCACCACAUGAUGAUGCCUGAAGAGCCUUGGUUUUUUG

Variants of: B1
Assay: polymerase ribozyme fitness, log enrichment relative to wild type (log ratio); higher = more active; in vitro selection for triplet polymerase activity
How it was run: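 Mutant libraries were PCR-built and transcribed for each subunit of a heterodimeric triplet polymerase ribozyme and selected for one round in triplicate at −7 °C, frozen, before gel excision of extended constructs and streptavidin-bead capture. Input and output libraries were Illumina-sequenced, keeping genotypes with ≥10 input reads and ≥1 read per output. Fitness is a logarithmic ratio of genotype to wild-type enrichment, in base 2, using inverse-variance-weighted replicate averages.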
For GACCAAUCUGCCCUCAGAGCUCGAGAACAUCAUCGGAUGCAGAGGAGACAGGCUUCGGUGGUGCGAUAGCGCCAACGUCCUCAACCUCCAAUGCAUUCCUCCACAUGAUGAUGCCUGAAGAGCCUUGGUUUUUUG, the “polymerase ribozyme fitness (log ratio)” value was -7.37. For GACCAAUCUGCCCUCAGAGCUCGAGAACAUUUUCGGAUGCAGAGGAGGCAGGCUUCGGUGGCGCGAUAGCUCCAACGUCCUCAACCUCCAAUGCAUCCCACCACAUGAUGAUGCCUGAAUAGCCUUGGUUUUUUG, the “polymerase ribozyme fitness (log ratio)” value was -4.2. In the case of GACCAAUCUGCCCUCAGAGCUCGAGAACAUUUUCGGAUGCAGAGGAGGCAGGCUUCGGUUGCGCGAUAGCGCCAACGUCCUCAACCUCCAAUGCAUCCCACCACAUGAUGAUGCCUGAAGAGCCUUGGUUUUUUG, the “polymerase ribozyme fitness (log ratio)” value is reported as -4.38. With GACCAAUCUGCCCUCAGAGCUCGAGAACAUCCUCGGAUGAAGAGGAGGCAGGCUUCGGUGGCGCGAUAGCGCCAACGUCCUCAACCUCCAAUGCAUCCCACCACAUGAUGAUGCCUGAAGAGCCUUGGUUUUUUG the “polymerase ribozyme fitness (log ratio)” value was -0.464. With GACCAAUCUGCCCUCAGAGCUCGAGAACAUCAUCGGAUGCAGAGGAGGCAGGCUUCGGUGGCGCGAUAGCGCCAACGUCCUCAACCUGCAAUGCAUCCCACCACAUGAUGAUGCCUGAAGAGCCAUGGUUUUUUG the “polymerase ribozyme fitness (log ratio)” value was -5.98. In the case of GACCAAUCUGCCCUCAGAGCUCGAGAACAUUUUCGGAUGCAGAGGAGGCAGGCUUCGGUGGCGCGAUAGCGCCAACGUCCUCAACCUCCAAUGCAUCCCACCACAUGAUGAUGCCUGAACAGCCUUGGUUUUUUG, the “polymerase ribozyme fitness (log ratio)” value is reported as -2.93. With GACCAAUCUGCCCUCAGAGCUCGAGAACAUCAUCGGAUGCAGAGGCGGCAGGCUUCGGUGGCGUGAUAGCGCCAACGGCCUCAACCUCCAAUGCAUCCCACCACAUGAUGAUGCCUGAAGAGCCUUGGUUUUUUG the “polymerase ribozyme fitness (log ratio)” value was -4.98. With GACCAAUCUGCCCUCAGAGCUCGAGAACAUUUUCGGAUACAGAGGAGGCAGGCUUCGGUGGCGCGAUAUCGCCAACGUCCUCAACCUCCAAUGCAUCCCACCACAUGAUGAUGCCUGAAUAGCCUUGGUUUUUUG the “polymerase ribozyme fitness (log ratio)” value was -3.44. For GACCAAUCUGCCCUCAGAGCUCGAGAACAUUUUCGGAUGCAGAGGAGGCAGGCUUCGGUGGCGCGAUAGCGCCAACGUCCUCAACCUCCAAUGCAUCCCACCACAUGAUGAUACCUGAAGAGCCUUGGUUUUUUG, the “polymerase ribozyme fitness (log ratio)” value was -3.94. For GACCAAUCUGCCCUCAGAGCUCGAGAACAUUUUCGGAUGCAGAGGAGGCAGGCUUCGGUGGCGCGAUAGCGCCAACGUCCUCAACCUCUAAUGCAACCCACCACAGGAUGAAGCCUGAAGAGCCUUGGUCUUUUG, the “polymerase ribozyme fitness (log ratio)” value was -4.19. For GACCAAUCUGCCCUCAGAGCUCGAGAACAUCAUCGGAUGCAGAGGUGGCAGGCAUCCCUGGCGCGAUAGUGCCAACGUCCUCAACCUCCAAUGCAUCCCACCACAUGAUGAUGCCUGAAGGGCCUUGGUUUUUUG, the “polymerase ribozyme fitness (log ratio)” value was -6.21. With GACCAAUCUGCCCUCAGAGCUCGAGAACAUCCUCGGAUGCAGAGGAGGCAGGCUUCGGUGGCGCGAUAGCGCCGACGUCCUCAACCUCCAAUGCAUCCCACCACAUGAUGAUGCCUGAAGAGCCUUGCUUUUUUG the “polymerase ribozyme fitness (log ratio)” value was -2.08. For GACCAAUCUGCCCUCAGAGCUCGAGAACAUUUUCGGAUGCAGAGGAGGCAGGCUUCGGUGGCACGAUAGCGCCAACGUCCUCAACCUCCAAUGCAUCCCACCACAUGAUGAUGCCUGAAGAGCCUUGGUUUUUUG, the “polymerase ribozyme fitness (log ratio)” value was -5.33. With GACCAAUCUGCCCUCAGAGCUCGAGAACAUCAUCGGAUGCAGAGGAGGCAGGCUUCGGUGGCGCGAUAGUGCCAACGUCCUCAACCUCCAAUGCAUCCCACCACAUGAUGAUGCGUGAAGAGCCUUGGUUUUUUG the “polymerase ribozyme fitness (log ratio)” value was -5.23. With GACCAAUCUGCCCUCAGAGCUCGAGAACAUUUUCGGAUGCAGAGGAGGCAGGCUUCGGUGGCGCGAUAGCGCCAACGCCCUCAACCUCCAAUGCAUCCCACCACAUGAUGAUGCCUGAAGAGCCUUGGUUUUUUG the “polymerase ribozyme fitness (log ratio)” value was -5.28. With GACCAAUCUGCCCUCAGAGCUCGAGAACAUCCUCGGAUGCAGAGGAGGCAGGCUUCGGUGGCGUGAUAGCGCCAACGUCCUCAACCUCCAAUACAUCCCACCACAUGAUGAUGGCUGAAGAGCCUUGGUUUUUGG the “polymerase ribozyme fitness (log ratio)” value was -2.93. For GACCAAUCUGCCCUCAGAGCUCGAGAACAUUUUCGAAUGCAGAGGAGGCAGGCUUCGGUGACGCGAUAGCGCCAACGUCCUCAACCACCAAUGCAUCCCACCACAAGAUGAUGCCUGAAGAGCCUUGGUUUUUUG, the “polymerase ribozyme fitness (log ratio)” value was -2.2. With GACCAAUCUGCCCUCAGAGCUCGAGAACAUCCUCGGAUGCUGAGCAGGCAGGCUUCGGUGGCGCGAUAGCGCCAACGUCCUCAACCUCCAAUGCAUCCCACCACAUGAUGAUGCGUGAAGAGCCUUGGUUUUUUG the “polymerase ribozyme fitness (log ratio)” value was -5.44. With GACCAAUCUGCCCUCAGAGCUCGAGAACAUCCUCGGAUGUAGAGGAGGCAGGCUUCGGUGGCGCGAUAGCGCCAACGUCCUCAACCUCCAAUGCAUCCCACCACAUGAUGAUGCCUGAAGAGCAUUGGUUUUUUG the “polymerase ribozyme fitness (log ratio)” value was 1.21. In the case of GACCAAUCUGCCCUCAGAGCUCGAGAACAUUUUCGUAUGCAGAGGAGGCAGGCUUCGGUGGCGCGAUAGCGCUAACGUCCUAAACGUCCAAUGCAUCCCACCACAUGAUGAUUCCUGAAGAGCCUUGGUUUUAUG, the “polymerase ribozyme fitness (log ratio)” value is reported as -6.04. In the case of GACCAAUCUGCCCUCAGAGCUCGAGAACAUCAUCGGAUGUAGAGGAGGCAGGCUUCGGUGGCGCGAUAGCGCCAACGUCCUCAACCUCCAAUGCAUCCCACCACAAGAUGAUGCCUGAAGAGCCUUGGUUUUUUG, the “polymerase ribozyme fitness (log ratio)” value is reported as -6.43. With GACCAAUCUGCCCUCAGAGCUCGAGAACAUCAUCGGAUGCAGAGGAGGCAGGCUUCGGUGGCGCGAUAGCGCCCACGUCCUCAACCUCCAAUGCAUCCCACCACAUGAUGAUGGCUGAAGAGCCUUGGUUUUUUG the “polymerase ribozyme fitness (log ratio)” value was -4.4. In the case of GACCAAUCUGCCCUCAGAGCUCGAGAACAUUUUCGGAUGCAGACGAGGCAGGCUUCGGUGGCGCGAUAUCGCCAACGUCCUCAACCUCCAAUGCAUCCCACCACAUGAUGAUGCUUGAAGAGCCUUGGUAUUUUG, the “polymerase ribozyme fitness (log ratio)” value is reported as -4.82. For GACCAAUCUGCCCUCAGAGCUCGAGAACAUUUUCGGAUGCAGAGGAGGCAGGCUUCGGUGGCGCGAUAGCGCCAACGUCCUCAACCUCCAAUGAAUCCCACCACAUGAUGAUGUCUGAAGAGCCUUGGUUUUUUG, the “polymerase ribozyme fitness (log ratio)” value was -5.92. For GACCAAUCUGCCCUCAGAGCUCGAGAACAUCCUCGGAUGCAGAGGAGGCAGGCUUUGGUGGCGCGAUAGCGCCAACGUCCUCAACCUCCAAUGCAUCCCACCACAUGAUGAUGCCUGAAGAGCCUUGGUUUUUUG, the “polymerase ribozyme fitness (log ratio)” value was 0.1. In the case of GACCAAUCUGCCCUCAGAGCUCGAGAACAUUUUCGGAUGCAGAGGAGGCAGGCUUCGGUGGCGCGAUAUCGCCAACGUCCUCAACCUCCAAUGCAUCUCACCACAUGAUGAUGCCUGAGGAGCCUUGGUUUUUUG, the “polymerase ribozyme fitness (log ratio)” value is reported as -3.7. For GACCAAUCUGCCCUCAGAGCUCGAGAACAUUGUCUGAUGCAGAGGAGGCAGGCUUCGGUGUCGCGAUAGCGCCAACGUCCUCAACCUCCACUGCAUCCCACCACAUGAUGAUGCCUGAAGUGCCUUGGUUUUUUG, the “polymerase ribozyme fitness (log ratio)” value was -7. With GACCAAUCUGCCCUCAGAGCUCGAGAACAUUUUCGGAUGCAGAGGAGGCAGGCUUCGGUGGCGCGAUAGCGCCAACGUCCUCAACCUCCAAUGCAUCCCACCACAUGAUGAAACCUGAAGAGCCUUGGUUUUUUG the “polymerase ribozyme fitness (log ratio)” value was -4.76. With GACCAAUCUGCCCUCAGAGCUCGAGAACAUUUUCGUAUGCAGAGGAGGCAGGCUUCGGUCGCGCGAUAGCGCUAACGUCCUCAACCUCCAAUGCAUCCCACCACAUGAUGAUGCCUGAAGAGUCUUGGUUUUUUG the “polymerase ribozyme fitness (log ratio)” value was -4.81. With GACCAAUCUGCCCUCAGAGCUCGAGAACAUCCUCGGAUGCAGAGGAGGCAGGCUUCGGUGGUGCGAUAGCGCCAACCUCCUCAACCUCCAAUGCAUCCCCCCACAGGAUGAUGCCUGAAGAGCCUUGGUUUUUUG the “polymerase ribozyme fitness (log ratio)” value was -3.33. With GACCAAUCUGCCCUCAGAGCUCGAGAACAUUUUCGGAUGCAGAGGAGGCAGGCUUCGGUGGCGCGAUAGCGCCAACGUCCUCAACCUCCAAUGCAUCCCACCACAUGAUGAUGCCUGAAGAGCCUUGGUUUUUUU the “polymerase ribozyme fitness (log ratio)” value was -4.94. In the case of GACCAAUCUGCCCUCAGAGCUCGAGAACAUCACCGGAUGCAGAGGAGGCAGGCUUCGGUGGCGCGAUAGCGCCAACCUCCUCAACCUCCAAUGCAUCCCACGACAUAAUGAUGCCUGAAGGGCCUUGGUUUUUUG, the “polymerase ribozyme fitness (log ratio)” value is reported as -7.93. With GACCAAUCUGCCCUCAGAGCUCGAGAACAUCCUCGGAUGCUGAGGAGGCAGGCUUCGGUGGCGCGAUAGCGCCAACGUCCUCAACCUCCAAUGCAUCCCACCACAUGAUGAUGCCUGAAGAGCGUUGAUUUUUUG the “polymerase ribozyme fitness (log ratio)” value was -1.01. In the case of GACCAAUCUGCCCUCAGAGCUCGAGAACAUCAUCGGAUGCAGAGGAGGCAGGCUUCGGUGUCGCGAUAGCGCCAACGUCCUCAACCUCCAAUGCAUCCCACCACAUGAUGAUGCCUGAAGAGCCUUGGUUUUUUG, the “polymerase ribozyme fitness (log ratio)” value is reported as -2.74. In the case of GACCAAUCUGCCCUCAGAGCUCGAGAACAUUUUCGGAUGCAGAGGAGGCAGGCUUCGGUGGCGCGAUAGCGCCAACGUCCACAACCUGCAAUGCUUCCCACCACAUGAUGAAGCCUGAAGAGCCUUGGUUUUUUG, the “polymerase ribozyme fitness (log ratio)” value is reported as -6.66. In the case of GACCAAUCUGCCCUCAGAGCUCGAGAACAUUUUCGGAUGCAGAGGAGGCAGGCUUCGGUGGCGCGAUAGCUCCAACGUCCUCAACCUCCAAUGCAUCCCACCACAUGAUGAUGCCUGAAGAGCGUUGGUUUUUUG, the “polymerase ribozyme fitness (log ratio)” value is reported as -3.59. In the case of GACCAAUCUGCCCUCAGAGCUCGAGAACAUUUUCGGAUGCAGAGGAGGCAGGCUUCGGUGGCGCGAUAGCGCCAACGUCCUCAACCUCCAAUGCAGCCCACCACAUGAUGAUGCCUGAAGAGCCUUGGUUUUUUG, the “polymerase ribozyme fitness (log ratio)” value is reported as -5.37. For GACCAAUCUGCCCUCAGAGCUCGAGAACAUUUUCGUAUGCAGAGGAGGCAGGCUUCGGUCGCGCGAUAGCGCCAACGUCCUCAACCUCCAAUGCAUCCCACCACAUGAUGAUGCCUGAAGAGUCUUGGUUUUUUG, the “polymerase ribozyme fitness (log ratio)” value was -5.45. For GACCAAUCUGCCCUCAGAGCUCGAGAACAUCCUCGGAUGCAGAGGAGGCAGGCUUCGGUGGCGCGAUAGCGCCAACGUCCUCAACCUCCAAUGCAUCCCACCACAUGAUGAUGCCUGAGGAGCCUUGGUUUUUUG, the “polymerase ribozyme fitness (log ratio)” value was 0.645. In the case of GACCAAUCUGCCCUCAGAGCUCGAGAACAUCCUCGGAUGCAGAGGAGGCAGGCUUCGGUGGCGCGAUAGCGCCAACGUCCUCGACCACCAAUGCAUCCCACCACAAGAUGAUGCCUGAAGAGCCUUGGUUUUUUG, the “polymerase ribozyme fitness (log ratio)” value is reported as -2.71. With GACCAAUCUGCCCUCAGAGCUCGAGAACAUUUUCGGAUGCAGAGGAGGCAGGCUUCGGUGGCGCGAUAGCGCCAACGUCCUCAACCUCCAAUGCAUCCCACCACAUGAUGAUGCCUGAAGAGCCUUCGUUUUUUG the “polymerase ribozyme fitness (log ratio)” value was -3.6. With GACCAAUCUGCCCUCAGAGCUCGAGAACAUUUUCGGAUGCAGAGGAGGCAGGCUUCGGUGUCGCGAUAGCGCCAACGUCCUCAACCUCCACUGCAUCCCACCACAUGAUGAUGCCUGAAGAGCCUUGGUUUUUUG the “polymerase ribozyme fitness (log ratio)” value was -5.51.
